One protein from publication PMC5618700 can be followed below.

The data set concerns the molecule itself. The data set is described as follows: SDS-PAGE without reducing agent (oligomerization assay) with Western blot; PLY 0.4 uM in solution without cholesterol or membranes, incubated 1 hr at 37°C with 0, 2.18, 4.36 or 8.73 uM EGCG (control with DMSO only); 5x loading buffer without β-ME, 10 min at 50°C; 6% SDS-PAGE, Western blot; oligomerization reduced by EGCG in a concentration-dependent manner.

B1: Pneumolysin (PLY), wild type, His-tagged (natural protein, Streptococcus pneumoniae D39, UniProt Q04IN8 1-471, looked up)
chain: MANKAVNDFILAMNYDKKKLLTHQGESIENRFIKEGNQLPDEFVVIERKKRSLSTNTSDISVTATNDSRLYPGALLVVDETLLENNPTLLAVDRAPMTYSIDLPGLASSDSFLQVEDPSNSSVRGAVNDLLAKWHQDYGQVNNVPARMQYEKITAHSMEQLKVKFGSDFEKTGNSLDIDFNSVHSGEKQIQIVNFKQIYYTVSVDAVKNPGDVFQDTVTVEDLKQRGISAERPLVYISSVAYGRQVYLKLETTSKSDEVEAAFEALIKGVKVAPQTEWKQILDNTEVKAVILGGDPSSGARVVTGKVDMVEDLIQEGSRFTADHPGLPISYTTSFLRDNVVATFQNSTDYVETKVTAYRNGDLLLDHSGAYVAQYYITWDELSYDHQGKEVLTPKAWDRNGQDLTAHFTTSIPLKGNVRNLSVKIRECTGLAWEWWRTVYEKTDLPLVRKRTISIWGTTLYPQVEDKVEND
notes: no cleavage of the tag is described; also called PLY-WT
B1: the binding result was “binds”.
